According to patent US20230312724A1 (KADMON, published 2023):
Substitutions are numbered along the chain they refer to. Where two headings read alike, the source gives them in different places. One block for each binder: values may come before it.

Key:
mouse B7-H4-Fc [1] = biological target: T1, mouse B7-H4-Fc (mouse; human); experiment: ELISA, coated mB7-H4-Fc
T1 construct: also called mB7-H4-Fc; mB7-H4-hFc
Procedure: (§1) About 1-2 μg/ml of human or mouse B7-H4-Fc (or his-tagged) was immobilized on ELISA plates (Immuno 2HB, Thermo scientific, cat #3455) at 4° C. overnight. After blocking the plates with 3% PBS+milk, serial diluted antibodies were added to the blocked plates and incubated at RT for 1-1.5 h. After washing the plates with PBS-T (0.05%), horse radish peroxidase (HRP)-conjugated antibody targeting the hFab was added to the plate. Signals were developed by adding 3,3′,5,5′-Tetramethylbenzidine (TMB (followed 1N of H₂SO₄ to stop the reaction. The OD at 450 nm was read by ELISA plate reader (Infinite M1000 from TECAN). GraphPad from Prism was used to plot OD450 vs. antibody concentration curve and to calculate the EC50 values.

[2] = biological target: T2, hB7-H4 (soluble human B7-H4, construct not named) (human, UniProt Q7Z7D3 25-259, limits assumed); experiment: ELISA, hB7-H4
T2 construct: also called soluble hB7-H4
T2 sequence: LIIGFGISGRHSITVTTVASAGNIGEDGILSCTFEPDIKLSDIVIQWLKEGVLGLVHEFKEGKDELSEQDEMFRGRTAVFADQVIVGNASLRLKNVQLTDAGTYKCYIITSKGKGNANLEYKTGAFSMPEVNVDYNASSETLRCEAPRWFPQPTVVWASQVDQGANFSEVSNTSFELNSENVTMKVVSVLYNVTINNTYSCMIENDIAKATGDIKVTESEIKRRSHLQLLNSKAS
Procedure: as §1

[3] = biological target: T3, IgC domain of mouse B7-H4-Fc (mouse; human); experiment: ELISA, coated mB7-H4 IgC domain
T3 construct: also called mB7-H4 IgC domain
T3 sequence (chain, as listed by the source): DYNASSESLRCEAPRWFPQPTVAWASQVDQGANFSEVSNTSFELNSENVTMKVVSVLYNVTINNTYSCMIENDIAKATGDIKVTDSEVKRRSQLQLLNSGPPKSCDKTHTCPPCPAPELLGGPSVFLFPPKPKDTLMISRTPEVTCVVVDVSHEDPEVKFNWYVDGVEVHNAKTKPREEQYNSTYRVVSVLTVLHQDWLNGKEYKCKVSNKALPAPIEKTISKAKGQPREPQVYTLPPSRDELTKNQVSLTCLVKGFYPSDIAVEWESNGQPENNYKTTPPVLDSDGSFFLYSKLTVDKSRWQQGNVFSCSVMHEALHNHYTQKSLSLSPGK

[4] = biological target: T4, mouse B7-H4 expressed on cells (mouse, UniProt Q7TSP5 25-257); experiment: flow cytometry, mB7-H4/CT26 cells
T4 construct: also called cellular mB7-H4; mB7-H4/CT26
T4 sequence: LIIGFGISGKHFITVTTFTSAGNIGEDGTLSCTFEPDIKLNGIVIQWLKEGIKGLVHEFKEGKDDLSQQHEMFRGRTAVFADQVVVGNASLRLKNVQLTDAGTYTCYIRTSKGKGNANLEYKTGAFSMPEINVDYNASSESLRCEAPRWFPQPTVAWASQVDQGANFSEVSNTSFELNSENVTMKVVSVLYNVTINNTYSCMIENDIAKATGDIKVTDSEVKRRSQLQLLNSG
Procedure: (§2) Cells were harvested, washed once, and then re-suspended to the concentration of 1×10⁶ cells/ml in ice cold FACS Buffer. 25 μl of cell suspension was added to each well of a 96-well round-bottom microliter plate. Serially diluted antibodies or fusion proteins were added to each well and incubated for 1 hour at 4° C. Cells were washed three times by centrifugation at 1500 rpm for 5 minutes, and then stained with secondary antibody (1:200 dilution) for 30 min at 4° C. in the dark. Cells were washed once, re-suspended in 100 μl PBS buffer and then analyzed using Guava Flow Cytometry EasyCyte system.

[5] = biological target: T2, hB7-H4 (soluble human B7-H4, construct …); experiment: SPR (Biacore)
Procedure: (§3) Surface plasmon resonance experiments were performed using a Biacore T200 instrument equipped with CM5 sensor chips. The system was equilibrated in running buffer HBS-EP pH 7.4. The ligands were immobilized using amine-coupling chemistry. The surfaces of flow cells one through four were activated for 5 min using an amine coupling kit at a flow rate of […]. The ligands (human B7-H4-Fc, human B7-H4-hism and mouse B7-H4-Fc; at a concentration of 5 μg/ml in 10 mM sodium acetate, pH 5.0) were immobilized at a density of 50-100 RU on flow cell 2, 3, 4 respectively. Flow cell 1 was left blank to serve as a reference surface. All flow cell surfaces were blocked with a 5 min injection of 1 M ethanolamine, pH 8.0. To collect kinetic binding data, the respective analyte (diluted in 1×HBS-EP buffer, pH 7.4) was injected over the four flow cells at concentrations of 100 nM to 0.1 nM at a flow rate of […] and at a temperature of 25° C. The protein complex was allowed to associate and dissociate for 180 seconds and 1000 or 1200 seconds, respectively. The surfaces were regenerated with a 30 second injection of 1.5 M NaCl/0.05 M NaOH. The data were fit to a simple 1:1 interaction model using the Langmuir fit option available within the Biaevaluaton software

[6] = biological target: T5, mB7-H4 (soluble mouse B7-H4, construct not named) (mouse, UniProt Q7TSP5 25-257, limits assumed); experiment: SPR (Biacore)
T5 sequence: T4 sequence
Procedure: as §3

[7] = biological target: T6, human B7-H4 expressed on cells (human, UniProt Q7Z7D3 25-282); experiment: flow cytometry, SK-BR-3 cells
T6 construct: Transfected CHO cells or tumor cell lines that carry hB7-H4; also called cellular hB7-H4
T6 sequence: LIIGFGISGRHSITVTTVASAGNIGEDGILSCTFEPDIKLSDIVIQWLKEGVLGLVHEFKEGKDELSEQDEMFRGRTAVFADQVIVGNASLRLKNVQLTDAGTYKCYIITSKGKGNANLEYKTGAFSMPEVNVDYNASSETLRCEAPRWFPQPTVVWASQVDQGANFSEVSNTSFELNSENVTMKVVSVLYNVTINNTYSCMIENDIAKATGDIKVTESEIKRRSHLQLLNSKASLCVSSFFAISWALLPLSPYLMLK
Procedure: as §2

[8] = biological target: T5, mB7-H4 (soluble mouse B7-H4, construct …); experiment: ELISA, mB7-H4
Procedure: as §1

[9] = biological target: T7, IgC domain of human B7-H4-Fc (human); experiment: ELISA, coated hB7-H4 IgC domain
T7 construct: also called hB7-H4 IgC domain
T7 sequence (chain, as listed by the source): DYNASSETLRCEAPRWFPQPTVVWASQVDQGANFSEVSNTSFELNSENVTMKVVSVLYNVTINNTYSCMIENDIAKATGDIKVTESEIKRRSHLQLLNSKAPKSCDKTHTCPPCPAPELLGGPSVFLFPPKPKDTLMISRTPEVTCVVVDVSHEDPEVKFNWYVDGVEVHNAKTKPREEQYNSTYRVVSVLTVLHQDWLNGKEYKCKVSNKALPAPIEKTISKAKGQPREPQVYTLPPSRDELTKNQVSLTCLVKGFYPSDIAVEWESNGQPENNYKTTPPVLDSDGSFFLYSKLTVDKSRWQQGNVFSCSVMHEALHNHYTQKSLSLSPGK

[10] = biological target: T5, mB7-H4 (soluble mouse B7-H4, construct …); experiment: summary of ELISA and flow cytometry
[11] = biological target: T8, IgV domain of mouse B7-H4-Fc (mouse; human); experiment: ELISA, coated mB7-H4 IgV domain
T8 construct: also called mB7-H4 IgV domain
T8 sequence (chain, as listed by the source): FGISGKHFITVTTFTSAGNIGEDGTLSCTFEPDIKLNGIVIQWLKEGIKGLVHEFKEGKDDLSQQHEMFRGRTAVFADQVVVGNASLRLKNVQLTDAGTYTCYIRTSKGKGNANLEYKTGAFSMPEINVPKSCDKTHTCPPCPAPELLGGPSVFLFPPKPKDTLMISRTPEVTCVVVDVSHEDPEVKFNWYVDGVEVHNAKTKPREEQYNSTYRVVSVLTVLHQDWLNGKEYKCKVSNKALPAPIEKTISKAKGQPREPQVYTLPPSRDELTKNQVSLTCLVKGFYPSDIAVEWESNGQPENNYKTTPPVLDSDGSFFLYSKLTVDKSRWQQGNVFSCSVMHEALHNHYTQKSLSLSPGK
Procedure: (§4) ELISA experiments were performed to determine binding to hB7-H4-Fc (FIG. 4A), hB7-H4-his (FIG. 4B), hB7-H4 IgV domain (FIG. 4C), and mB7-H4 IgV domain (FIG. 4D). Flow cytrometry experiments were performed to determine binding to CHO cells expressing hB7-H4 (FIG. 4E) or mB7-H4 (FIG. 4F). […] A cross-reactive IgV binding antibody was used as a control.
as §1

mouse B7-H4-his [12] = biological target: T9, mouse B7-H4-his (mouse, UniProt Q7TSP5 25-257); experiment: SPR (Biacore)
T9 construct: also called mB7-H4-his; mB7-H4-His; not shown: his tag
T9 sequence: T4 sequence
Procedure: as §3
(§5) The kinetics for binding of the different antibodies to their targets were examined using Biacore analysis.

human B7-H4-his = biological target: T10, human B7-H4-his (human, UniProt Q7Z7D3 25-259); experiment: SPR (Biacore)
T10 construct: also called hB7-H4-his; hB7-H4 his; not shown: his tag
T10 sequence: T2 sequence
Procedure: as §3, §5

human B7-H4-Fc [13] = biological target: T11, human B7-H4-Fc (human); experiment: SPR (Biacore)
T11 construct: also called hB7-H4-Fc; hB7-H4 Fc
T11 sequence (chain, as listed by the source): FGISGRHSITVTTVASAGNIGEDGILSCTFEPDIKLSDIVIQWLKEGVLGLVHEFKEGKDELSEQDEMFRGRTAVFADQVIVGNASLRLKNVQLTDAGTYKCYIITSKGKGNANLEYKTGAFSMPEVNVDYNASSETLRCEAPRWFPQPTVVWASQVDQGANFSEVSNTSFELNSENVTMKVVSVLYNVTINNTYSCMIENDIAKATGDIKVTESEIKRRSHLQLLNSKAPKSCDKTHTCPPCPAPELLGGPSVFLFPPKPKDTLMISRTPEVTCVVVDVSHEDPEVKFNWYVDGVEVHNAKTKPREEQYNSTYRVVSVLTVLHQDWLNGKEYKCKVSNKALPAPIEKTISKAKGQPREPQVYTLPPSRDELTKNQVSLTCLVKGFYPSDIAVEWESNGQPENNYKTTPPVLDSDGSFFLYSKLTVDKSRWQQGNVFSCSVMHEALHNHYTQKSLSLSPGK
Procedure: as §3, §5

human B7-H4-Fc [14] = biological target: T11, human B7-H4-Fc; experiment: ELISA, coated hB7-H4-Fc
Procedure: as §4, §1

mouse B7-H4-Fc [15] = biological target: T1, mouse B7-H4-Fc; experiment: ELISA, coated mB7-H4-Fc (title on the sheet: Binding to mB7H4-Fc)
Procedure: as §4, §1

[16] = biological target: T12, IgV domain of human B7-H4-Fc (human); experiment: ELISA, coated hB7-H4 IgV domain
T12 construct: also called hB7-H4 IgV domain
T12 sequence (chain, as listed by the source): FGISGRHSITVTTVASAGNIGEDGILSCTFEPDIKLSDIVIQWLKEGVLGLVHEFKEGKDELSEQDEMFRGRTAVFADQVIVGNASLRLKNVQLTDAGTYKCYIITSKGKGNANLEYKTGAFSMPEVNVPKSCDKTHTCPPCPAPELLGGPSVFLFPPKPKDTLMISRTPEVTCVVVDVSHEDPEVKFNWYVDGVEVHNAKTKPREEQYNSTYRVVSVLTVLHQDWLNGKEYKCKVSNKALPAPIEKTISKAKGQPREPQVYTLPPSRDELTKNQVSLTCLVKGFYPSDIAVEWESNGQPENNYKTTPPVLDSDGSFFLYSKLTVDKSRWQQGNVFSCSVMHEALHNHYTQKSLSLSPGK
Procedure: as §1

human B7-H4-Fc [17] = biological target: T11, human B7-H4-Fc; experiment: ELISA, coated hB7-H4-Fc; remark: listed apart in the source
Procedure: as §1

[18] = biological target: T8, IgV domain of mouse B7-H4-Fc; experiment: ELISA, coated mB7-H4 IgV domain; remark: listed apart in the source
Procedure: as §1

mouse B7-H4-his [19] = biological target: T9, mouse B7-H4-his; experiment: SPR (Biacore); remark: listed apart in the source
mouse B7-H4-Fc [20] = biological target: T1, mouse B7-H4-Fc; experiment: SPR (Biacore)
[21] = biological target: T4, mouse B7-H4 expressed on cells; experiment: flow cytometry, CHO cells expressing mB7-H4
Procedure: (§6) ELISA experiments were performed to determine binding to hB7-H4-Fc (FIG. 3A), hB7-H4-his (FIG. 3B), mB7-H4-Fc (FIG. 3C), and hB7-H4 IgV domain (FIG. 3D). Flow cytometry experiments were performed to determine binding to CHO cells expressing hB7-H4 (FIG. 3E) or mB7-H4 (FIG. 3F).
as §2

mouse B7-H4-Fc [22] = biological target: T1, mouse B7-H4-Fc; experiment: ELISA, coated mB7-H4-Fc; remark: listed apart in the source
Procedure: as §6, §1

T1 sequence (chain, as listed by the source): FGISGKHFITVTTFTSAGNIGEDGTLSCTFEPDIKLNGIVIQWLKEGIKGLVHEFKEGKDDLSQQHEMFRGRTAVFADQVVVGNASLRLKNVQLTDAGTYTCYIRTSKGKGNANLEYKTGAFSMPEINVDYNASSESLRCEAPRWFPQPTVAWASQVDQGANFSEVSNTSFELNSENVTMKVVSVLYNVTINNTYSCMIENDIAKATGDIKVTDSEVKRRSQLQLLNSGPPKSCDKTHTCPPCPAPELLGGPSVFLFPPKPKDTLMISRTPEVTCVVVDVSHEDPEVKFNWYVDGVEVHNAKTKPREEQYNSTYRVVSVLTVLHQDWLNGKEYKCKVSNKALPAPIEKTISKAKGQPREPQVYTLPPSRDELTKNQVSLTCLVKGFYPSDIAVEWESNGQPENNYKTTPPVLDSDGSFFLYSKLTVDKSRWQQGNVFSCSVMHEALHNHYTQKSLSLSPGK

B1: 39A11/56A9 (antibody, human IgG1, V domains shown)
VH: EVQLLESGGGLVQPGGSLRLSCAASGFTFSSYGMHWVRQAPGKGLEWVASISSSSGYIYYADSVKGRFTISRDNSKNTLYLQMNSLRAEDTAVYYCARASSGMDVWGQGTTVTVSS
VL: DIQMTQSPSSLSASVGDRVTITCRASQSISSYLNWYQQKPGKAPKLLIYAASIRESGVPSRFSGSGSGTDFTLTISSLQPEDFATYYCQQYYTTPLTFGQGTKLEIK
notes: 39A11 VH with 56A9 VL
binding result (mouse B7-H4-Fc [1]): binds
EC50 [2]: 0.081 nM
binding result [3]: no binding (tested: log 1 nM (10 nM))
EC50 [4]: 1.85 nM
Kd [5]: 1.21 nM
Kd [6]: 0.00138 nM
EC50 [7]: 2.53 nM
EC50 [8]: 0.13 nM
binding result [9]: no binding (tested: log 1 nM (10 nM))

B2: 3D1/3D1 (antibody, human IgG1, V domains shown)
VH: QVQLVQSGAEVKKPGSSVKVSCKASGYSFISYAITWVRQAPGQGLEWIGGINPIFGTAKYAQKFQGRVTITADESTSTAYMELSSLRSEDTAVYYCAKGQALIQHWGQGTLVTVSS
VL: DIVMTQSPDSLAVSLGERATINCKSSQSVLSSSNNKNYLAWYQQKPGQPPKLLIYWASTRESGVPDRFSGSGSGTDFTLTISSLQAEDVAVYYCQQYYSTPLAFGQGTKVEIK
binding result [10]: no binding
binding result [11]: no binding
binding result (mouse B7-H4-his [12]): no binding
Kd (human B7-H4-his): 28.5 nM
Kd (human B7-H4-Fc [13]): 2.23 nM
EC50 (read off the curve) (human B7-H4-Fc [14]): ~0.009 µg/mL
binding result (mouse B7-H4-Fc [15]): no binding (tested: log 0.3 ug/ml (about 2 ug/ml))

B3: 5E4/5E4 (antibody, human IgG1, V domains shown)
VH: QVQLVQSGAEVKKPGASVKVSCKASGYTFTSYDINWVRQAPGQGLEWMGWMNPNSGNTGYAQKFQGRVTMTRDTSTSTVYMELSSLRSEDTAVYYCARGELWFGEFDYYYYYGMDVWGQGTTVTVSS
VL: DIQMTQSPSSLSASVGDRVTITCRASQSISSYLNWYQQKPGKAPKLLIYGASSLQSGVPSRFSGSGSGTDFTLTISSLQPEDFATYYCQQADRIPFTFGRGTKVEIK
EC50 (read off the curve) (mouse B7-H4-Fc [1]): ~0.1 nM
binding result [16]: no binding (tested: 20 nM)
EC50 (read off the curve) (human B7-H4-Fc [17]): ~0.1 nM
Kd (human B7-H4-his): 10 nM
Kd (human B7-H4-Fc [13]): 11.7 nM
binding result [18]: no binding (tested: 20 nM)
Kd (mouse B7-H4-his [19]): 9.09 nM
Kd (mouse B7-H4-Fc [20]): 14.1 nM

Second part, led by results:

binding result [10]: no binding
binding result (mouse B7-H4-his [12]): no binding
Kd (human B7-H4-his): 2.47 nM
Kd (human B7-H4-Fc [13]): 3.57 nM
B4: 1A12/1A12 (antibody, human IgG1, V domains shown)
VH: EVQLLESGGGLVKPGGSLRLSCAASGFTFSSYAMHWVRQAPGKGLEWVAVISYDGSNKYYADSVKGRFTISRDDSKNTLYLQMNSLKTEDTAVYYCARHGWDAFDIWGQGTLVTVSS
VL: B3 VL with S28D, S31N, Y32R, G50L, S56G, D92I, R93S, I94F, F96L, R100G
binding result [21]: no binding (tested: axis value -7 (log scale labelled nM))
binding result (mouse B7-H4-Fc [22]): no binding (tested: axis value -8 (log scale labelled nM))

binding result [10]: no binding
binding result [11]: no binding
binding result (mouse B7-H4-his [12]): no binding
Kd (human B7-H4-his): 6.3 nM
Kd (human B7-H4-Fc [13]): 10.9 nM
EC50 (read off the curve) (human B7-H4-Fc [14]): ~0.03 µg/mL
B5: 6C3/6C3 (antibody, human IgG1, V domains shown)
VH: EVQLLESGGGLVQPGGSLRLSCAASGFTFSSYAMHWVRQAPGKGLEWVASISGTGFTTRYADSVKGRFTISRDNSKNTLYLQMNSLRAEDTAVYYCARGGWFRDTPVDYWGQGTLVTVSS
VL: DIVMTQSPLSLPVTPGEPASISCRSSQSLLHSNGYNYLDWYLQKPGQSPQLLIYGASSLRSGVPDRFSGSGSGTDFTLKISRVEAZDVGVYYCMQASHWPPTFGQGTRLEIK
notes: The VL holds a letter Z
binding result [21]: no binding (tested: axis value -7 (log scale labelled nM))
binding result (mouse B7-H4-Fc [15]): no binding (tested: log 0.3 ug/ml (about 2 ug/ml))

binding result [10]: no binding
binding result (mouse B7-H4-his [12]): no binding
Kd (human B7-H4-his): 1.11 nM
Kd (human B7-H4-Fc [13]): 1.66 nM
B6: 1F11/1F11 (antibody, human IgG1, V domains shown)
VH: QVQLVQSGAEVKKPGSSVKVSCKASGDTFTTYQIHWVRQAPGQGLEWMGGIMPIFGTTKYAQNFQGRVTITADESTSTAYMELSSLRSEDTAVYYCARRNYGMDVWGQGTTVTVSS
VL: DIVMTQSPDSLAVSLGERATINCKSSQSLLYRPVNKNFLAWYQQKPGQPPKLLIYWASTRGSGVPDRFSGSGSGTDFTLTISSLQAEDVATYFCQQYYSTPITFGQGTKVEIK
binding result [21]: no binding (tested: axis value -7 (log scale labelled nM))
binding result (mouse B7-H4-Fc [22]): no binding (tested: axis value -8 (log scale labelled nM))
